Measurements published in JP2006246896A.

Target: ヒトEGFレセプター(細胞表面に発現) (human) (UniProt P00533)
Experiment: cell ELISA on glutaraldehyde-fixed A431 cells, compared with chimeric C225

相対親和力 (relative to chimeric C225): 65%
B1: 再形成ヒトH225抗体(225RKA/225RHA) (antibody, V domains shown)
VH: EVQLVESGGGLVQPGGSLRLSCAVSGFSLTNYGVHWVRQATGKGLEWLGVIWSGGNTDYNTPFTSRLTISKENAKNSLYLQMNSLRAGDTAVYYCARALTYYDYEFAYWGQGTM
VL: EIVLTQSPATLSLSPGERATLSCRASQSIGTNIHWYQQRPGQAPRLLIKYASESISGIPARFSGSGSGTDFTLTISSLEPEDFAVYYCQQNNNWPTTFGGG
